Measured values taken from US20210238298A1 (ALLIGATOR BIOSCIENCE, published 2021).
Positions count from the first letter of the chain named. Numbers in names are those of the source.

B1: human wild-type CD86 (monomeric soluble extracellular domain) (ligand)
chain: APLKIQAYFNETADLPCQFANSQNQSLSELVVFWQDQENLVLNEVYLGKEKFDSVHSKYMGRTSFDSDSWTLRLHNLQIKDKGLYQCIIHHKKPTGMIRIHQMNSELSVLA
notes: also called wild type protein
B2: CD86 mutant 1039 (ligand)
chain: B1 chain with Q25L, H56S, L84I, T95S, I98V, R99K, N104D
notes: Variant of the CD86 extracellular domain
B3: CD86 mutant 1041 (ligand)
chain: B1 chain with F9L, Q25L, H56D, L84I, M97L, I98V, R99K, Q102E
notes: as for B2
B4: CD86 mutant 1042 (ligand)
chain: B1 chain with Q25L, K51I, H56S, L84I, T95S, I98V, R99K, N104D
notes: as for B2
B5: CD86 mutant 1043 (ligand)
chain: B1 chain with Q25L, H56D, L84I, R99K, Q102E
notes: as for B2
B6: CD86 mutant 1044 (ligand)
chain: B1 chain with Q25L, S26T, H56S, L84I, R99K, Q102E, N104S
notes: as for B2
B7: CD86 mutant 1045 (ligand)
chain: B1 chain with Q25L, S26T, H56D, M97L, I98V, R99K, Q102E
notes: as for B2
B8: CD86 mutant 1046 (ligand)
chain: B1 chain with H56D, K80E, L84I, T95S, I98V, R99K, N104D
notes: as for B2
B9: CD86 mutant 1047 (ligand)
chain: B1 chain with Q25L, H56D, L84I, M97L, I98V, R99K, Q102E
notes: as for B2
B10: CD86 mutant H79A (Peach et al.) (ligand)
chain: B1 chain with H56A
notes: also called Prior Art
B11: CD86 mutant 1038 (ligand)
chain: B1 chain with Q25L, H56D, L84I, I98V, R99K, Q102E
notes: as for B2
B12: CD86 mutant 910 (ligand)
chain: LKIQAYFNETADLPCQFANSQNQSLSELVVFWQDQENLVLNEVYLGKEKFDSVDSKYMGRTSFDSDSWTLRLHNLQIKDKGIYQCIIHHKKPTGMVKIHEMNSELSVLA
notes: as for B2
B13: CD86 mutant 900 (ligand)
chain: B12 chain with I86V, T93S, M95L
notes: as for B2
B14: CD86 mutant 901 (ligand)
chain: B12 chain with Q23L, S24T, D54H, I86V, V96I, A109T
notes: as for B2
B15: CD86 mutant 904 (ligand)
chain: B12 chain with V29I, K49R, S52A, T93S, E100Q, N102D
notes: as for B2
B16: CD86 mutant 906 (ligand)
chain: B12 chain with F7I, Q23L, K49R, I82F, M95L
notes: as for B2
B17: CD86 mutant 907 (ligand)
chain: B12 chain with D54H, I82L, V96I
notes: as for B2
B18: CD86 mutant 908 (ligand)
chain: B12 chain with D54H
notes: as for B2
B19: CD86 mutant 915 (ligand)
chain: B12 chain with V39I, I82F, T93S, M95L, V96I, E100Q, N102D
notes: as for B2
B20: CD86 mutant 938 (ligand)
chain: B12 chain with V39I, D54H, E100Q
notes: as for B2
B21: anti-OX40 antibody 1490/1135 (antibody, V domains shown)
VH: EVQLLESGGGLVQPGGSLRLSCAASGFTFSSYAMSWVRQAPGKGLEWVSGISYYGGYTYYADSVKGRFTISRDNSKNTLYLQMNSLRAEDTAVYYCARYYPHHYIDYWGQGTLVTVSS
VL: not shown
notes: Tested as IgG

molecular target: T1, CTLA4-Fc (Fitzgerald, #30R-CD152) (human, UniProt P16410 38-152); assay: SPR (Biacore), immobilised CTLA4-Fc
T1 construct: Bought; also called human CTLA-4 (Fitzgerald); biotinylated-CTLA4; not shown: Fc part of the bought fusion, not described
Method: (§1) Either CTLA4-Fc (Fitzgerald, #30R-CD152) or CD28-Fc (R&D Systems, 342-CD) was immobilized to the Biacore™ sensor chip, CM5, using conventional amine coupling. The CD86 mutant molecules and controls (serially diluted ½ 100-1.5 nM) were analyzed for binding in HBS-P (GE, BR-1003-68) at a flow rate of […]. The association was followed for 3 minutes and the dissociation for 10 minutes. Regeneration was performed twice using 5 mM NaOH for 30 seconds. The kinetic parameters and the affinity constants were calculated using BIAevaluation 4.1 software (Table 1.3).

T1 sequence (P16410 38-152 limits assumed): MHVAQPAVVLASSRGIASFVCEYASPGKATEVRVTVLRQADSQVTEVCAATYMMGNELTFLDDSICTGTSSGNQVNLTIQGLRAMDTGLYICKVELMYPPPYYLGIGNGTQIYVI

| Binder | Kd [nM] | koff [s⁻¹] | kon [M⁻¹ s⁻¹] |
| --- | --- | --- | --- |
| B1 | 50 | 0.023 | 460000 |
| B2 | 8 | 0.0085 | 1e+06 |
| B3 | 12 | 0.0084 | 700000 |
| B4 | 25 | 0.011 | 440000 |
| B5 | 10 | 0.011 | 1.1e+06 |
| B6 | 8 | 0.0094 | 1.1e+06 |
| B7 | 9 | 0.0083 | 940000 |
| B8 | 6 | 0.008 | 1.4e+06 |
| B9 | 10 | 0.0084 | 850000 |
| B10 | 63 | 0.022 | 340000 |
| B11 | 12 | 0.012 | 1e+06 |

molecular target: T1, CTLA4-Fc (Fitzgerald, #30R-CD152); assay: ELISA on coated CTLA4-Fc and CD28-Fc
Method: 96-well flat bottom high binding plates (Greiner, #655074) were coated with either CTLA4-Fc (Fitzgerald, #30R-CD152) or CD28-Fc (R&D systems, 342-CD) by incubating overnight at 4° C. […] The plates were washed again and sample or controls (serially diluted ⅕ from 200-0.001 μg/ml) were added to the wells. The samples were incubated for 1 h at room temperature and then washed. Detection antibody, goat-anti-human IgG Fcγ-HRP (Jackson, #109-035-098) was added and the plates were subsequently developed using SuperSignal Pico Chemiluminescent substrate (Thermo Scientific, #37069) and detected with an Envision reader (Perkin Elmer). EC50 values were calculated for both CTLA4 and CD28. The binding ratio (EC50 binding ratio=[EC50 for CD28]÷[EC50 for CTLA-4]) was calculated for each polypeptide and is shown in Table 1.1.

| Binder | EC50 binding ratio ([EC50 for CD28]/[EC50 for CTLA-4]) |
| --- | --- |
| B12 | 7.7 |
| B13 | 3.5 |
| B14 | 17.2 |
| B15 | 12.2 |
| B16 | 16.2 |
| B17 | 30.5 |
| B18 | 6.2 |
| B19 | 9.9 |
| B20 | 2 |
| B1 | 3.4 |

molecular target: T2, soluble murine CTLA-4 (R&D systems) (murine, UniProt P09793 36-162); assay: not described
T2 construct: Bought
Method: In brief, 96-well flat bottom plate high binding plates (Greiner #655074) were coated with human CTLA-4 (Fitzgerald) incubating overnight at 4° C.
The sample (exemplary CD86 mutant) was pre-incubated at room temperature for 1 hour with soluble biotinylated human CTLA4 (Fitzgerald #30R-CD152) or soluble murine CTLA-4 (R&D systems) at different concentrations (serial dilutions ¼ from 30000 to 0.3 ng/ml).
The mixture was then added to the blocked wells in the ELISA plate. Detection was performed with Streptavidin-HRP (Pierce, #21126) and the plates were subsequently developed using SuperSignal Pico Chemiluminescent substrate (Thermo Scientific, #37069) and detected with Envision reader (Perkin Elmer).

| Binder | binding result |
| --- | --- |
| B12 | binds |
| B13 | binds |
| B14 | binds |
| B15 | binds |
| B16 | binds |
| B17 | binds |
| B18 | binds |
| B19 | binds |
| B20 | binds |
| B2 | binds |
| B3 | binds |
| B4 | binds |
| B5 | binds |
| B6 | binds |
| B7 | binds |
| B8 | binds |
| B9 | binds |
| B11 | binds |

molecular target: T1, CTLA4-Fc (Fitzgerald, #30R-CD152); assay: SPR on immobilised CTLA4-Fc and CD28-Fc
Method: as §1

| Binder | Kd binding ratio ([Kd for CD28]/[Kd for CTLA-4]) |
| --- | --- |
| B12 | 5.1 |
| B14 | 2.7 |
| B15 | 6.8 |
| B16 | 0.8 |
| B17 | 5.6 |
| B18 | 4.7 |
| B19 | 1.9 |
| B20 | 5.5 |
| B1 | 1.6 |

molecular target: T3, OX40 chimera 1548: human OX40 with mouse module 3 and domains 4A and 4B (aa 108-167), on FreeStyle 293-F cells (human; mouse, UniProt P47741 104-165); assay: flow cytometry, 293-F transfectants
T3 construct: domain: module 3, 4A and 4B; Limits derived as for 1544
T3 sequence: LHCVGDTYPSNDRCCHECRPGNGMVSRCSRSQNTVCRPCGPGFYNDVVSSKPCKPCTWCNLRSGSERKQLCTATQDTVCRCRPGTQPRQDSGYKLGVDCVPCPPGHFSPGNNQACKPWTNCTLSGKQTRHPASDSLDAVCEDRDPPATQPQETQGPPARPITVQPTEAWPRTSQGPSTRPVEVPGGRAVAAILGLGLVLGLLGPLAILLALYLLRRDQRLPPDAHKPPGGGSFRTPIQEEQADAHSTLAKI
Method: The mouse/human chimeras were transiently transfected into FreeStyle 293-F cells (Invitrogen), incubated 48 hours in FreeStyle 293 expression medium (Invitrogen) 37 C, 8% CO₂, 135 rpm. The transfected cells were incubated with human OX40 antibodies, human OX40L (hOX40L, RnD Systems), mouse OX40L (mOX40L, RnD Systems) and controls for 30 min 4° C. and then detected with a-huIgG-PE (Jackson Immunoresearch) 30 min 4° C. Cells were analyzed with FACS Verse (BD Biosciences). Binding to the different chimeric constructs were calculated as relative (mean fluorescence intensity) MFI compared to the binding of the isotype control.

| Binder | relative MFI vs isotype control |
| --- | --- |
| B21 | 1.1 |

molecular target: T4, murine OX40 (murine, UniProt P47741 20-211, limits assumed); assay: ELISA
T4 sequence (looked up): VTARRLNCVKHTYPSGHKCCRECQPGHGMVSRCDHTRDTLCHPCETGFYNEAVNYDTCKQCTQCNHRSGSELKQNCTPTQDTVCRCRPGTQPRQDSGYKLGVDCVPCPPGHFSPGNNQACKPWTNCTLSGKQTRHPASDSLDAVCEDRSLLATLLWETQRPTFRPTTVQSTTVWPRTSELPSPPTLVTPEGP

| Binder | binding result |
| --- | --- |
| B21 | no binding |

molecular target: T5, CD40 (Ancell) (UniProt P25942 21-193); assay: ELISA
T5 construct: also called CD40-Fc (Ancell #504-820); not shown: Fc part, not described
T5 sequence (P25942 21-193 limits assumed): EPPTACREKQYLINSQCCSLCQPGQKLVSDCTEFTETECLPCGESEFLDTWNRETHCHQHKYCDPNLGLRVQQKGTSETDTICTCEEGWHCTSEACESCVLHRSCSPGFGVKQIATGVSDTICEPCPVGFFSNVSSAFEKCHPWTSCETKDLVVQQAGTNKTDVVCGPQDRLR

| Binder | binding result |
| --- | --- |
| B21 | no binding |

molecular target: T6, recombinant human CD137-Fc (R&D #838-4B) (human, UniProt Q07011 24-186); assay: ELISA
T6 construct: Bought; also called Human CD137 (R&D systems); CD137 (R&D Systems); not shown: Fc part, not described
T6 sequence (Q07011 24-186 limits assumed): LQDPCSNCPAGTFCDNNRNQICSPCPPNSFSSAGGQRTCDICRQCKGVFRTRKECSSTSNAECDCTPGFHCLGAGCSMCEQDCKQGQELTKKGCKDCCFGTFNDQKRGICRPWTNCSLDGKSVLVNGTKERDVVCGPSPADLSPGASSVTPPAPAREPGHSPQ

| Binder | binding result |
| --- | --- |
| B21 | no binding |
